Laboratory results published in article PMC10991250, “Efficient synthesis 1,4-cyclohexanedicarboxaldehyde by an engineered alcohol oxidase” (Bioresources and Bioprocessing, 2022).

Tests used:
[1] = substrate: OCC1CCC(CO)CC1; test: initial rate of HMCA formation by GC, Michaelis-Menten fit; type: biochemical, Pseudarthrobacter chlorophenolicus; conditions: 1-100 mM CHDM, air-saturated O2, 100 mM potassium phosphate pH 8.0, 30 °C, 5% DMSO, 0.1 g/L catalase
Source text: initial rate of HMCA formation by GC, Michaelis-Menten fit on AcCO

[2] = substrate: O=CC1CCC(CO)CC1; test: initial rate of CHDA formation by GC, Michaelis-Menten fit; type: biochemical, Pseudarthrobacter chlorophenolicus; conditions: 1-100 mM HMCA, air-saturated O2, 100 mM potassium phosphate pH 8.0, 30 °C, 5% DMSO, 0.1 g/L catalase
Source text: initial rate of CHDA formation by GC, Michaelis-Menten fit on AcCO

| Protein | Km [1] | kcat [1] | kcat/Km [1] | Km [2] | kcat [2] | kcat/Km [2] |
| --- | --- | --- | --- | --- | --- | --- |
| AcCO (Pseudarthrobacter chlorophenolicus A6) (protein, codon-optimized synthetic gene in pET-28a(+) (BamHI/EcoRI), E. coli BL21(DE3), purified by AKTA; FAD-dependent) MHIDNIENLSDRGFDYVVIGGGSAGAAVAARLSEDPDVSVALVEAGPDDRNIPEILQLDRWMELLESGYDWDYPIEPQENGNSFMRHARAKVMGGCSSHNSCIAFWAPREDLDEWESKYGATGWNAANAWPLYKRLETNQDAGPDAPHHGDSGPVHLMNVPPADPSGVALLDACEEAGIPRARFNTGTTVVNGANFFQINRRGDGTRSSSSVSYIHPIIERDNFTLLTGLRARQLVFDADKRCTGVEVVDGAFGRTHRLTARHEVILSTGAIDSPKLLMLSGIGPAEHLAQHGIEVLVDSPGVGENLQDHPEGVVQFEAKQPMVQTSTQWWEIGIFTPTEDGLDRPDLMMHYGSVPFDMNTLRHGYPTTENGFSLTPNVTHARSRGTVRLRSRDFRDKPMVDPRYFTDPEGHDMRVMVAGIRKAREIAAQPAMSAWTGRELSPGVGAQTDEELQDYIRKTHNTVYHPVGTVRMGADDDGMSPLDARLRVKGVTGLRVADASVMPEHVTVNPNITVMMIGERCADLIKADYAGADALEEKELTTSFA | 15.30 ± 0.14 mM | 0.00267 ± 0.000467 s⁻¹ | 0.167 M⁻¹ s⁻¹ | 26.81 ± 0.19 mM | 0.000717 ± 0.000217 s⁻¹ | 0.0267 M⁻¹ s⁻¹ |
| AcCO (Pseudarthrobacter chlorophenolicus A6; S101A) (protein, codon-optimized synthetic gene in pET-28a(+) (BamHI/EcoRI), E. coli BL21(DE3), purified by AKTA; FAD-dependent) MHIDNIENLSDRGFDYVVIGGGSAGAAVAARLSEDPDVSVALVEAGPDDRNIPEILQLDRWMELLESGYDWDYPIEPQENGNSFMRHARAKVMGGCSSHNACIAFWAPREDLDEWESKYGATGWNAANAWPLYKRLETNQDAGPDAPHHGDSGPVHLMNVPPADPSGVALLDACEEAGIPRARFNTGTTVVNGANFFQINRRGDGTRSSSSVSYIHPIIERDNFTLLTGLRARQLVFDADKRCTGVEVVDGAFGRTHRLTARHEVILSTGAIDSPKLLMLSGIGPAEHLAQHGIEVLVDSPGVGENLQDHPEGVVQFEAKQPMVQTSTQWWEIGIFTPTEDGLDRPDLMMHYGSVPFDMNTLRHGYPTTENGFSLTPNVTHARSRGTVRLRSRDFRDKPMVDPRYFTDPEGHDMRVMVAGIRKAREIAAQPAMSAWTGRELSPGVGAQTDEELQDYIRKTHNTVYHPVGTVRMGADDDGMSPLDARLRVKGVTGLRVADASVMPEHVTVNPNITVMMIGERCADLIKADYAGADALEEKELTTSFA | 13.45 ± 0.23 mM | 0.00617 ± 0.00107 s⁻¹ | 0.45 M⁻¹ s⁻¹ | 20.42 ± 0.12 mM | 0.00233 ± 0.000367 s⁻¹ | 0.114 M⁻¹ s⁻¹ |
| AcCO (Pseudarthrobacter chlorophenolicus A6; H351V/N378S/S101A) (protein, codon-optimized synthetic gene in pET-28a(+) (BamHI/EcoRI), E. coli BL21(DE3), purified by AKTA; FAD-dependent) MHIDNIENLSDRGFDYVVIGGGSAGAAVAARLSEDPDVSVALVEAGPDDRNIPEILQLDRWMELLESGYDWDYPIEPQENGNSFMRHARAKVMGGCSSHNACIAFWAPREDLDEWESKYGATGWNAANAWPLYKRLETNQDAGPDAPHHGDSGPVHLMNVPPADPSGVALLDACEEAGIPRARFNTGTTVVNGANFFQINRRGDGTRSSSSVSYIHPIIERDNFTLLTGLRARQLVFDADKRCTGVEVVDGAFGRTHRLTARHEVILSTGAIDSPKLLMLSGIGPAEHLAQHGIEVLVDSPGVGENLQDHPEGVVQFEAKQPMVQTSTQWWEIGIFTPTEDGLDRPDLMMVYGSVPFDMNTLRHGYPTTENGFSLTPSVTHARSRGTVRLRSRDFRDKPMVDPRYFTDPEGHDMRVMVAGIRKAREIAAQPAMSAWTGRELSPGVGAQTDEELQDYIRKTHNTVYHPVGTVRMGADDDGMSPLDARLRVKGVTGLRVADASVMPEHVTVNPNITVMMIGERCADLIKADYAGADALEEKELTTSFA | 7.63 ± 0.72 mM | 0.0312 ± 0.002 s⁻¹ | 4 M⁻¹ s⁻¹ | 6.81 ± 0.13 mM | 0.00883 ± 0.002 s⁻¹ | 1.3 M⁻¹ s⁻¹ |
| AcCO (Pseudarthrobacter chlorophenolicus A6; H351V) (protein, codon-optimized synthetic gene in pET-28a(+) (BamHI/EcoRI), E. coli BL21(DE3), purified by AKTA; FAD-dependent) MHIDNIENLSDRGFDYVVIGGGSAGAAVAARLSEDPDVSVALVEAGPDDRNIPEILQLDRWMELLESGYDWDYPIEPQENGNSFMRHARAKVMGGCSSHNSCIAFWAPREDLDEWESKYGATGWNAANAWPLYKRLETNQDAGPDAPHHGDSGPVHLMNVPPADPSGVALLDACEEAGIPRARFNTGTTVVNGANFFQINRRGDGTRSSSSVSYIHPIIERDNFTLLTGLRARQLVFDADKRCTGVEVVDGAFGRTHRLTARHEVILSTGAIDSPKLLMLSGIGPAEHLAQHGIEVLVDSPGVGENLQDHPEGVVQFEAKQPMVQTSTQWWEIGIFTPTEDGLDRPDLMMVYGSVPFDMNTLRHGYPTTENGFSLTPNVTHARSRGTVRLRSRDFRDKPMVDPRYFTDPEGHDMRVMVAGIRKAREIAAQPAMSAWTGRELSPGVGAQTDEELQDYIRKTHNTVYHPVGTVRMGADDDGMSPLDARLRVKGVTGLRVADASVMPEHVTVNPNITVMMIGERCADLIKADYAGADALEEKELTTSFA | 13.36 ± 0.12 mM | 0.00683 ± 0.00045 s⁻¹ | 0.517 M⁻¹ s⁻¹ | 16.24 ± 0.11 mM | 0.004 ± 0.000367 s⁻¹ | 0.247 M⁻¹ s⁻¹ |
| AcCO (Pseudarthrobacter chlorophenolicus A6; H351V/N378S/Q329N/S101A) (protein, codon-optimized synthetic gene in pET-28a(+) (BamHI/EcoRI), E. coli BL21(DE3), purified by AKTA; FAD-dependent) MHIDNIENLSDRGFDYVVIGGGSAGAAVAARLSEDPDVSVALVEAGPDDRNIPEILQLDRWMELLESGYDWDYPIEPQENGNSFMRHARAKVMGGCSSHNACIAFWAPREDLDEWESKYGATGWNAANAWPLYKRLETNQDAGPDAPHHGDSGPVHLMNVPPADPSGVALLDACEEAGIPRARFNTGTTVVNGANFFQINRRGDGTRSSSSVSYIHPIIERDNFTLLTGLRARQLVFDADKRCTGVEVVDGAFGRTHRLTARHEVILSTGAIDSPKLLMLSGIGPAEHLAQHGIEVLVDSPGVGENLQDHPEGVVQFEAKQPMVQTSTNWWEIGIFTPTEDGLDRPDLMMVYGSVPFDMNTLRHGYPTTENGFSLTPSVTHARSRGTVRLRSRDFRDKPMVDPRYFTDPEGHDMRVMVAGIRKAREIAAQPAMSAWTGRELSPGVGAQTDEELQDYIRKTHNTVYHPVGTVRMGADDDGMSPLDARLRVKGVTGLRVADASVMPEHVTVNPNITVMMIGERCADLIKADYAGADALEEKELTTSFA | 1.12 ± 0.19 mM | 0.0367 ± 0.00717 s⁻¹ | 32.7 M⁻¹ s⁻¹ | 5.24 ± 0.28 mM | 0.0157 ± 0.000717 s⁻¹ | 3 M⁻¹ s⁻¹ |
| AcCO (Pseudarthrobacter chlorophenolicus A6; H351V/S101A) (protein, codon-optimized synthetic gene in pET-28a(+) (BamHI/EcoRI), E. coli BL21(DE3), purified by AKTA; FAD-dependent) MHIDNIENLSDRGFDYVVIGGGSAGAAVAARLSEDPDVSVALVEAGPDDRNIPEILQLDRWMELLESGYDWDYPIEPQENGNSFMRHARAKVMGGCSSHNACIAFWAPREDLDEWESKYGATGWNAANAWPLYKRLETNQDAGPDAPHHGDSGPVHLMNVPPADPSGVALLDACEEAGIPRARFNTGTTVVNGANFFQINRRGDGTRSSSSVSYIHPIIERDNFTLLTGLRARQLVFDADKRCTGVEVVDGAFGRTHRLTARHEVILSTGAIDSPKLLMLSGIGPAEHLAQHGIEVLVDSPGVGENLQDHPEGVVQFEAKQPMVQTSTQWWEIGIFTPTEDGLDRPDLMMVYGSVPFDMNTLRHGYPTTENGFSLTPNVTHARSRGTVRLRSRDFRDKPMVDPRYFTDPEGHDMRVMVAGIRKAREIAAQPAMSAWTGRELSPGVGAQTDEELQDYIRKTHNTVYHPVGTVRMGADDDGMSPLDARLRVKGVTGLRVADASVMPEHVTVNPNITVMMIGERCADLIKADYAGADALEEKELTTSFA | 10.21 ± 0.46 mM | 0.02183 ± 0.000183 s⁻¹ | 2.17 M⁻¹ s⁻¹ | 14.44 ± 0.46 mM | 0.00683 ± 0.000233 s⁻¹ | 0.473 M⁻¹ s⁻¹ |
